The record followed here is article doi:10.1101/2021.04.27.441644 (bioRxiv, 2021).

B1: CLIP-170 CG2 fragment (H1 206-288) (domain or fragment)
chain: KKGERELKIGDRVLVGGTKAGVVRFLGETDFAKGEWCGVELDEPLGKNDGAVAGTRYFQCQPKYGLFAPVHKVTKIGFPSTTP
B2: CLIP-170 S2-CG2-S3 fragment (H1 156-350) (domain or fragment)
chain: MVSSSPSTPSNIPQKPSQPAAKEPSATPPISNLTKTASESISNLSEAGSIKKGERELKIGDRVLVGGTKAGVVRFLGETDFAKGEWCGVELDEPLGKNDGAVAGTRYFQCQPKYGLFAPVHKVTKIGFPSTTPAKAKANAVRRVMATTSASLKRSPSASSLSSMSSVASSVSSRPSRTGLLTETSSRYARKISGT
B3: CLIP-170 CG2-S3 fragment (H1 203-350) (domain or fragment)
chain: GSIKKGERELKIGDRVLVGGTKAGVVRFLGETDFAKGEWCGVELDEPLGKNDGAVAGTRYFQCQPKYGLFAPVHKVTKIGFPSTTPAKAKANAVRRVMATTSASLKRSPSASSLSSMSSVASSVSSRPSRTGLLTETSSRYARKISGT

The target of this experiment is filamentous actin (F-actin) (rabbit, UniProt P68135 1-377). Kind of experiment: co-sedimentation.
With B1, the Kd (in general, the concentration at which binding is half-saturated) is around 90 µM.
With B2, the Kd is around 10 µM.
B3 had a Kd of 20 µM.
